Changes are numbered by the printed parent chain. Primed or numbered codes have the meaning given here. The star is where a group is joined. Biotin = O=C1N[C@H]2[C@H](CS[C@H]2CCCCC(=O)*)N1; PEG4′ = not defined here
T1: B7-H3 expressed on the surface of cells (MCF7 cells; B7-H3-expressing cancer cells) (Homo sapiens (Human), UniProt Q5ZPR3 29-534)
T1 construct: Endogenous B7-H3 on MCF7 cells (DELFIA) and on an unnamed cancer cell line (flow cytometry); also called CD276
T1 sequence: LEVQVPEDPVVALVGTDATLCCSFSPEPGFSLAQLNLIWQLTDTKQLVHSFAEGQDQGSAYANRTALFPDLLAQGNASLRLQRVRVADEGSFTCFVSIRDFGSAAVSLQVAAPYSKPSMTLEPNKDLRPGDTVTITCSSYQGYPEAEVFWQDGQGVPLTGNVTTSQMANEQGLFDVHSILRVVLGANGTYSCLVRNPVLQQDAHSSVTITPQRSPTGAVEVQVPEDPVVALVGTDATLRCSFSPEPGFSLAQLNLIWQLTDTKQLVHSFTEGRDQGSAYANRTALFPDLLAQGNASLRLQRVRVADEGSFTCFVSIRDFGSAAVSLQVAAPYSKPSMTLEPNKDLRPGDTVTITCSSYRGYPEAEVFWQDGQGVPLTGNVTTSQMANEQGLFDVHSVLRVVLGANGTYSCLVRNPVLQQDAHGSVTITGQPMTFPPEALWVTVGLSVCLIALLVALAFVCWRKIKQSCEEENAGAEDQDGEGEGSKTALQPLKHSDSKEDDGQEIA

T2: His-tagged B7-H3 protein (ThermoFisher, catalog #B7-H3_NP_001019907) (Homo sapiens (Human), UniProt Q5ZPR3 29-466)
T2 construct: Bought protein immobilised for SPR; also called ligand; target protein; not shown: His tag
T2 sequence: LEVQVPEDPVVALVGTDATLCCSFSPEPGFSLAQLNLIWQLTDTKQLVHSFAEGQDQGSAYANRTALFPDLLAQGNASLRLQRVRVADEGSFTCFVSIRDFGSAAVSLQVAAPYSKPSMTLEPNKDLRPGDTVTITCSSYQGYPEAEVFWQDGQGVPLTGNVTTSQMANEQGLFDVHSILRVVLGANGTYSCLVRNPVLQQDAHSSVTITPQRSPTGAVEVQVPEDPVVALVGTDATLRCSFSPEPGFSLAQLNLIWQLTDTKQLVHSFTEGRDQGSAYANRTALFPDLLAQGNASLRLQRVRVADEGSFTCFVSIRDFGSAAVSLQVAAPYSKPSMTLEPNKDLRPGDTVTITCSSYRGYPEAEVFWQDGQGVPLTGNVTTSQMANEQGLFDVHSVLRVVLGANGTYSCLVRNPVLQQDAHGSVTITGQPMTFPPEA

B1: Compound C245 (designed binder)
chain: CAKEKIAALSEIIWLPCLTYAQIXAFIAALNDDPCQSSELLSEAKELNDSQCP
modifications: (homo-leucine) at 24; N-terminal Biotin-PEG4; C-terminal NH2; disulfide bridges between cysteine pairs (Cys1-Cys35 and Cys17-Cys52 named for SEQ ID NO: 213)
B2: Compound C255 (designed binder)
chain: B1 chain
modifications: (Kme3) at 24; N-terminal Biotin-PEG4; C-terminal NH2; disulfide bridges between cysteine pairs
B3: Compound C253 (designed binder)
chain: B1 chain
modifications: (Kme2) at 24; N-terminal Biotin-PEG4; C-terminal NH2; disulfide bridges between cysteine pairs
B4: Compound C234 (designed binder)
chain: CAXEKIAALSEIIWLPCLTYAQIXAFIAALNDDPCQSSEILSEAKELCS
modifications: (Kme3) trimethyllysine at 3; (Kme2) dimethyllysine at 24; N-terminal Biotin-PEG4; C-terminal NH2; two disulfide bridges among Cys1, Cys17, Cys35, Cys48
notes: also called C298
B5: Compound C302 (designed binder)
chain: B4 chain with X3R, S38A, E39N, K45X
modifications: (Kme) monomethyllysine at 24 and 45; N-terminal Biotin-PEG4; C-terminal NH2; two disulfide bridges among Cys1, Cys17, Cys35, Cys48
B6: Compound C608 (designed binder)
chain: B4 chain with E11X, Q36N, K45X
modifications: (Kme3) at 3; (E(CO-)) at 11 and (K(NH-)) at 45 joined by a lactam bridge; (Kme) at 24; N-terminal Biotin-PEG4; C-terminal NH2; two disulfide bridges
notes: Three constraints (two disulfide bridges, one lactam bridge)
B7: Compound C300 (designed binder)
chain: B4 chain with X3R, S38A
modifications: (Kme2) at 24; N-terminal Biotin-PEG4; C-terminal NH2; two disulfide bridges among Cys1, Cys17, Cys35, Cys48
B8: Compound C308 (designed binder)
chain: B4 chain with A29X, D32X, K45X
modifications: (Kme3) at 3; (Kme) at 24, 29, 32 and 45; N-terminal Biotin-PEG4; C-terminal NH2; two disulfide bridges among Cys1, Cys17, Cys35, Cys48
B9: Compound C306 (designed binder)
chain: B4 chain with A28X, K45X
modifications: (Kme3) at 3; (Kme) at 24, 28 and 45; N-terminal Biotin-PEG4; C-terminal NH2; two disulfide bridges among Cys1, Cys17, Cys35, Cys48
B10: Compound C304 (designed binder)
chain: B4 chain with K45X
modifications: (Kme3) at 3; (Kme) at 24 and 45; N-terminal Biotin-PEG4; C-terminal NH2; two disulfide bridges among Cys1, Cys17, Cys35, Cys48
B11: Compound C318 (designed binder)
chain: B4 chain with A29X, D32X, K45X
modifications: (Kme3) at 3; (Kme2) at 24; (Kme) at 29 and 45; (Cit) citrulline at 32; N-terminal Biotin-PEG4; C-terminal NH2; two disulfide bridges among Cys1, Cys17, Cys35, Cys48
B12: Compound C316 (designed binder)
chain: B4 chain with A29R, S38A, K45X
modifications: (Rme) methylated arginine at 3; (Kme) at 24 and 45; N-terminal Biotin-PEG4; C-terminal NH2; two disulfide bridges among Cys1, Cys17, Cys35, Cys48
B13: Compound C310 (designed binder)
chain: B4 chain with T19N, K45X
modifications: (Kme3) at 3; (Kme) at 24 and 45; N-terminal Biotin-PEG4; C-terminal NH2; two disulfide bridges among Cys1, Cys17, Cys35, Cys48
B14: Compound C312 (designed binder)
chain: B4 chain with Q36N, K45X
modifications: (Kme3) at 3; (Kme) at 24 and 45; N-terminal Biotin-PEG4; C-terminal NH2; two disulfide bridges among Cys1, Cys17, Cys35, Cys48

Tests used:
[1] = molecular target: T1, B7-H3 expressed on the surface of cells …; test: DELFIA competition on cells expressing B7-H3 (as in Example 14); competitor: europium-chelate miniprotein tracer
[2] = molecular target: T1, B7-H3 expressed on the surface of cells …; test: DELFIA on-cell competition assay on MCF7 cells (FIG. 15); single experiment of FIG. 15
Description: (§1) Equilibrium binding affinity (KD) was determined using SPR (as in Example 2) or a live cell binding assay (DELFIA) on MCF7 cells that express B7-H3. Binding inhibition constant (Kᵢ) of miniprotein ligands was also determined using MCF7 cells expressing a B7-H3. Cells were dispensed into a 384-well plate and incubated at 37° C. in 5% CO₂ overnight.
(§2) The plate was incubated for 1.5 h at room temperature to reach equilibrium. Cells were then washed to remove unbound ligand and treated according to manufacturer instructions for a DELFIA® (dissociation-enhanced lanthanide fluorescent immunoassay, Revvity Health Sciences). In brief, 2 M HCl was added to each well and incubated for 2 h at 37° C. Following this step, 2 M NaOH and fluorescent inducer solution were added to each well and incubated for 30 minutes at room temperature. Plates were read on an Envision plate reader and a curve-fitting model was applied to estimate KD and Kᵢ values.

[3] = molecular target: T1, B7-H3 expressed on the surface of cells …; test: DELFIA competition on live MCF7 cells expressing B7-H3; fixed tracer: europium-chelate miniprotein
Description: as §1, §2

[4] = molecular target: T2, His-tagged B7-H3 protein (ThermoFisher, …); test: SPR (as in Example 2)
Description: Surface plasmon resonance (SPR) analyses were performed using Biacore T200 (GE Healthcare). His-tagged B7-H3 protein (ThermoFisher, catalog #B7-H3_NP_001019907), (“ligand”) was immobilized to a Series S NTA chip (Cytiva #28994951). Running buffer was 0.05% Surfactant P20 in HEPES buffered saline (HBS-P), pH 7.4 (Cytiva). Immobilization was performed at 25° C. […] Pulsatile injections were made to target a specific immobilization level. […] Increase in signal (RU) is proportional to an increase in binding events between the analyte and ligand surface. Then injection was then stopped, and dissociation was measured. The resulting sensorgram is reference surface and blank injection subtracted prior to curve fitting. […] KD was calculated using a 1:1 binding model at 25° C.
as §1

[5] = molecular target: T1, B7-H3 expressed on the surface of cells …; test: DELFIA competition assay on live MCF7 cells expressing B7-H3; the unlabeled competing ligand is varied against a fixed concentration of the europium-chelate miniprotein tracer
Description: as §1, §2

Row | Binder | Ki [1] [nM] | Ki [3] [nM] | Kd [4] [nM] | further results
1 | B1 | 2.8 |  |  | 
2 | B2 | 8.75 |  |  | 
3 | B3 | 5.36 |  |  | 
4 | B4 |  | 1.72 | 1.36 | Ki [2]: ~1.36 nM; IC50 (read off the curve) [5]: ~3 nM
5 | B5 |  | 1.34 | 0.558 | 
6 | B6 |  | 3.58 |  | 
7 | B7 |  | 1.91 | 0.506 | 
8 | B8 |  | 0.872 | 0.482 | 
9 | B9 |  | 1.24 | 0.761 | 
10 | B10 |  | 2.24 | 1.43 | 
11 | B11 |  | 1.24 | 1.24 | 
12 | B12 |  | 0.873 | 0.621 | 
13 | B13 |  | 0.886 | 0.782 | 
14 | B14 |  | 1.01 | 0.485 | 
15 | CAREKIAALSEIIWLPCLTYAQIXAFIAALNDDPCQSSEILSEAKELCS (designed binder, (Kme2) at 24; N-terminal Biotin-PEG4; C-terminal NH2; two disulfide bridges) [Compound C275] | 1.42 |  |  | 
16 | {Biotin-PEG4′}-CAREKIAALSEIIWLPCLTYAQIQAFIAALNDDPCQSSEILSEAKELCS-NH2 (designed binder, disulfide (positions not given here)) [Compound C290] | 13.8 |  |  | 
17 | {Biotin-PEG4′}-CAREKIAALSEIIWLPCLTYAQIKAFIAALNDDPCQSSEILSEAKELCS-NH2 (designed binder, disulfide (positions not given here)) [Compound C284] | 2.02 |  |  | 
18 | {Biotin-PEG4′}-CAREKIAALSEIIWLPCLTYAQIVAFIAALNDDPCQSSEILSEAKELCS-NH2 (designed binder, disulfide (positions not given here)) [Compound C291] | 7.7 |  |  | 
19 | {Biotin-PEG4′}-CAREKIAALSEIIWLPCLTYAQILAFIAALNDDPCQSSEILSEAKELCS-NH2 (designed binder, disulfide (positions not given here)) [Compound C286] | 23.9 |  |  | 

Source: patent US20260048158A1 (AKTIS ONCOLOGY, published 2026)
